Data from the supplement of paper PMC7125110.
± gives the standard error. This sample holds only a part of the variants without activity.

B1: glmS ribozyme (parent)
chain: AUAAAAGCGCCAGAACUACAGAAAUGUAGUUGACGAGGAGGAGGUUUAUCGAAUUUUCGGCGGAUGCCUCCAAA

Key:
Conditions in all cases: with glucosamine-6-phosphate
glucosamine-6-phosphate [1] = variants of: B1; assay: self-cleavage kobs at 40 uM GlcN6P; higher = faster cleavage; RNA array
Method in brief: (§1)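 A hybridised Cy3 probe tracked barcoded ribozyme variants, transcribed in situ by E. coli RNA polymerase on sequenced MiSeq chips, at 37 °C. The variants received 40 μM to 10 mM glucosamine-6-phosphate in HEPES/KCl/Mg(OAc)2 buffer. kobs came from decay fits and kcat and KM from weighted Michaelis–Menten fits.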

glucosamine-6-phosphate [2] = variants of: B1; assay: self-cleavage kobs at 160 uM GlcN6P; higher = faster cleavage; RNA array
Method in brief: as §1

glucosamine-6-phosphate [3] = variants of: B1; assay: self-cleavage kobs at 640 uM GlcN6P; higher = faster cleavage; RNA array
Method in brief: as §1

glucosamine-6-phosphate [4] = variants of: B1; assay: self-cleavage kobs at 2500 uM GlcN6P; higher = faster cleavage; RNA array
Method in brief: as §1

glucosamine-6-phosphate [5] = variants of: B1; assay: self-cleavage kobs at 10000 uM GlcN6P; higher = faster cleavage; RNA array
Method in brief: as §1

Row | Variant | self-cleavage kobs at 40 uM GlcN6P (glucosamine-6-phosphate [1]) [s⁻¹] | self-cleavage kobs at 160 uM GlcN6P (glucosamine-6-phosphate [2]) [s⁻¹] | self-cleavage kobs at 640 uM GlcN6P (glucosamine-6-phosphate [3]) [s⁻¹] | self-cleavage kobs at 2500 uM GlcN6P (glucosamine-6-phosphate [4]) [s⁻¹] | self-cleavage kobs at 10000 uM GlcN6P (glucosamine-6-phosphate [5]) [s⁻¹]
1 | G29A U49A | < 1e-05 | < 1e-05 | < 1e-05 |  | 
2 | C16A G38A | < 1e-05 |  |  |  | 
3 | A15G U49G | 4.65e-05 ± 2e-05 | 0.000118 ± 3.1e-05 | 0.000228 ± 4.3e-05 | 0.000499 ± 0.0001 | 0.00148 ± 0.00024
4 | C16G G29U U46G | 4.6e-05 ± 1.8e-05 |  |  |  | 0.00136 ± 0.00039
5 | A15C C16G G41A | < 1e-05 |  |  |  | 
6 | A15C U30G | 0.00258 ± 0.00062 | 0.00591 ± 0.0015 | 0.0305 ± 0.0089 | 0.0288 ± 0.011 | 0.153 ± 0.058
7 | A15U U55G C61U | < 1e-05 |  |  |  | < 1e-05
8 | C16U A53C | 0.000147 ± 2.2e-05 | 0.000234 ± 6.4e-05 | 0.00248 ± 0.00046 | 0.00358 ± 0.00061 | 0.00687 ± 0.0013
9 | A15G G32C G41A G60A C71U | < 1e-05 |  |  |  | 
10 | A28U | 0.000787 ± 0.00025 |  |  | 0.0144 ± 0.0048 | 0.0176 ± 0.0065
11 | C16U C71U | 0.000761 ± 6.6e-05 | 0.00136 ± 0.00015 | 0.00431 ± 0.00077 | 0.0356 ± 0.017 | 0.0301 ± 0.0059
12 | A15C G63U | < 1e-05 |  | < 1e-05 |  | < 1e-05
13 | C16U G63U G66A | < 1e-05 |  |  |  | < 1e-05
14 | C16G A33U | < 1e-05 |  |  |  | 3.36e-05 ± 1e-05
15 | G29C U65C | < 1e-05 | < 1e-05 |  |  | 
16 | C16G G40U U65C | < 1e-05 |  | < 1e-05 |  | 
17 | G29C U49G C58A | < 1e-05 |  |  |  | 
18 | C16A A33U G38C | < 1e-05 |  |  | < 1e-05 | 
19 | A18C | 0.00108 ± 0.0003 | 0.00647 ± 0.0023 | 0.0169 ± 0.0041 |  | 
20 | A18G | 0.00161 ± 0.00045 |  |  |  | 0.0231 ± 0.01
21 | G29U A33U G35A U69A | 0.000163 ± 6.6e-05 |  |  |  | 6.21e-05 ± 3e-05
22 | C16U A42U U45C G59A C68U | < 1e-05 |  |  |  | < 1e-05
23 | C16G G62U | < 1e-05 | < 1e-05 | < 1e-05 | < 1e-05 | < 1e-05
24 | G29A C70U | 0.000121 ± 1.3e-05 | 0.000201 ± 2.9e-05 | 0.000483 ± 6e-05 |  | 0.0021 ± 0.0006
25 | G26U C50G A52C U56G G66C C67U C71U | 0.000243 ± 7.9e-05 |  | 0.000548 ± 0.00021 |  | 0.000101 ± 2.7e-05

Row | Variant | self-cleavage kobs at 40 uM GlcN6P (glucosamine-6-phosphate [1]) [s⁻¹] | self-cleavage kobs at 160 uM GlcN6P (glucosamine-6-phosphate [2]) [s⁻¹] | self-cleavage kobs at 640 uM GlcN6P (glucosamine-6-phosphate [3]) [s⁻¹] | self-cleavage kobs at 2500 uM GlcN6P (glucosamine-6-phosphate [4]) [s⁻¹] | self-cleavage kobs at 10000 uM GlcN6P (glucosamine-6-phosphate [5]) [s⁻¹]
26 | A15U G51U C71A | < 1e-05 |  |  |  | < 1e-05
27 | A15C G32C A64U C67A | < 1e-05 |  |  |  | 
28 | G29C A48G | < 1e-05 | < 1e-05 | < 1e-05 | < 1e-05 | 
29 | G29A U55C C61G | < 1e-05 |  |  |  | 
30 | G29C A36C U49C U54G | < 1e-05 |  |  |  | 
31 | A15U G62A | < 1e-05 | < 1e-05 |  | < 1e-05 | < 1e-05
32 | A15U G62U | < 1e-05 |  | < 1e-05 | < 1e-05 | < 1e-05
33 | A15U G62C | < 1e-05 |  | < 1e-05 |  | < 1e-05
34 | G29C U56A | 4.47e-05 ± 1.2e-05 | 2.63e-05 ± 1.3e-05 | 0.000209 ± 3.6e-05 | 0.000439 ± 8.7e-05 | 0.00136 ± 0.00016
35 | C16A A52U G60A C71G | 5.98e-05 ± 2.3e-05 |  |  |  | 
36 | G29C G40C U65C | < 1e-05 |  |  |  | 
37 | C16A G59C | < 1e-05 |  | < 1e-05 |  | 
38 | C16U C34G U57A G62U | < 1e-05 |  |  |  | < 1e-05
39 | A15G C68A C70U | < 1e-05 |  |  |  | 
40 | C16U U47C | 7.47e-05 ± 1.5e-05 |  |  | 0.00165 ± 0.00046 | 0.00228 ± 0.00034
41 | C16U A33U G38A G40A | < 1e-05 |  |  |  | < 1e-05
42 | G29C C58U C71U | < 1e-05 |  |  |  | 5.59e-05 ± 1.7e-05
43 | G29U G35A G40C A42G | < 1e-05 |  |  |  | 
44 | C16A G32C G41C C68U C70A C71U | < 1e-05 |  |  |  | 
45 | A15C A36G | < 1e-05 | < 1e-05 | < 1e-05 | < 1e-05 | < 1e-05
46 | G29U A52U U65A | < 1e-05 |  |  |  | 
47 | A15U G29C A39G | 6.29e-05 ± 1.7e-05 |  |  |  | 0.00376 ± 0.0005
48 | C16G G35U | < 1e-05 | < 1e-05 | < 1e-05 | < 1e-05 | < 1e-05
49 | A15C G32U A33C | < 1e-05 | < 1e-05 | < 1e-05 | < 1e-05 | < 1e-05
